Tests used:
[1] = biological target: T1, purified human α-hemoglobin (human, UniProt P69905 2-142, heme-bound; carboxy (CO) form in interaction studies, oxy form in stability studies); assay: method not stated; told as 'discussed previously'
T1 construct: Holo-protein with heme; also called CO-α-hemoglobin; carboxy (CO)-α-hemoglobin

[2] = biological target: T2, purified human β-hemoglobin (human, UniProt P68871 2-147, heme-bound; carboxy (CO) form in interaction studies, oxy form in stability studies); assay: gel-filtration chromatography of equimolar mixtures
T2 construct: also called CO-β-hemoglobin; oxy-β-hemoglobin
From the text: Duplicate strips were stained with benzidine to identify heme-containing proteins, and/or with Ponceau S to stain all proteins.

[3] = biological target: T1, purified human α-hemoglobin; assay: gel filtration at various concentrations of AHSP and α-hemoglobin (data not shown)

T1 sequence (P69905 2-142 limits assumed): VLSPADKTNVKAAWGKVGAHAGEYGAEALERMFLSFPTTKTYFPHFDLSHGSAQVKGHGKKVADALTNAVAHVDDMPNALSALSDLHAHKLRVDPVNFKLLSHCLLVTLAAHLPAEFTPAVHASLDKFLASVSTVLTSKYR
T2 sequence (P68871 2-147 limits assumed): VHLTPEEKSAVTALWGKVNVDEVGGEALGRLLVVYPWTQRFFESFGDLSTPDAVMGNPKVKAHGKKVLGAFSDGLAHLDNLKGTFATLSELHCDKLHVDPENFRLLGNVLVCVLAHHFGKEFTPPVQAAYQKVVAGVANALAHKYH

Kd [1]: ~100 nM
binding result [2]: no binding
Kd [3]: ≤ 500 nM
B1: recombinant human AHSP (Alpha Hemoglobin Stabilizing Protein) (other, UniProt Q9NZD4 1-102, looked up)
chain: MALLKANKDLISAGLKEFSVLLNQQVFNDPLVSEEDMVTVVEDWMNFYINYYRQQVTGEPQERDKALQELRQELNTLANPFLAKYRDFLKSHELPSHPPPSS
notes: species not restated there; also called EDRF; Erythroid Differentiation Related Factor
